Holding throughout (assay): crystal structure
The target of series [1] is KR2 G263F mutant (Krokinobacter eikastus).
Series [2] addresses KR2 S254A mutant (Krokinobacter eikastus).
The series “crystal structure” concerns the molecule itself.

The stoichiometry N is a count of units in the complex or per binding partner. The molecule KR2 G263F mutant (natural protein) returned a stoichiometry N in series [1] of 5.
KR2 S254A mutant (natural protein) registered a stoichiometry N in series [2] of 5.

B1: Krokinobacter eikastus rhodopsin 2 (KR2), wild type (natural protein)
chain: MTQELGNANFENFIGATEGFSEIAYQFTSHILTLGYAVMLAGLLYFILTIKNVDKKFQMSNILSAVVMVSAFLLLYAQAQNWTSSFTFNEEVGRYFLDPSGDLFNNGYRYLNWLIDVPMLLFQILFVVSLTTSKFSSVRNQFWFSGAMMIITGYIGQFYEVSNLTAFLVWGAISSAFFFHILWVMKKVINEGKEGISPAGQKILSNIWILFLISWTLYPGAYLMPYLTGVDGFLYSEDGVMARQLVYTIADVSSKVIYGVLLGNLAITLSKNKELVEANS
modifications: retinal covalently bound to Lys255 via the Schiff base
On to B1, for which the “stoichiometry N” value in the series “crystal structure” was 5.

Values taken from publication PMC6457933 (Science Advances, 2019).
